Results taken from patent EP2083016A1 (U.S. Medical Research Institute of Infectious Diseases, dated 2009).

Experiments:
[1] = biological target: T1, HLA-DR1 (DR1 alpha/beta; DRA and DRB1*0101) on the cell surface (human); assay: flow cytometry on HLA-DR-bearing cells, FITC rabbit anti-TSST-1
[2] = biological target: T1, HLA-DR1 (DR1 alpha/beta; DRA and …); assay: flow cytometry on HLA-DR-bearing cells, FITC rabbit anti-SpeA
[3] = biological target: T1, HLA-DR1 (DR1 alpha/beta; DRA and …); assay: flow cytometry on human MHC class II expressing cells
[4] = biological target: T1, HLA-DR1 (DR1 alpha/beta; DRA and …); assay: flow cytometry; toxin on cells bearing HLA-DR1

B1: toxic shock syndrome toxin-1 (TSST-1), wild type (ligand)
chain: STNDNIKDLLDWYSSGSDTFTNSEVLDNSLGSMRIKNTDGSISLIIFPSPYYSPAFTKGEKVDLNTKRTKKSQHTSEGTYIHFQISGVTNTEKLPTPIELPLKVKVHGKDSPLKYGPKFDKKQLAISTLDFEIRHQLTQIHGLYRSSDKTGGYWKITMNDGSTYQSDLSKKFEYNTEKPPINIDEIKTIEAEIN
B1: binds [1].

B2: SpeA mutant L42A (ligand)
chain: QQDPDPSQLHRSSLVKNLQNIYFLYEGDPVTHENVKSVDQLASHDLIYNVSGPNYDKLKTELKNQEMATLFKDKNVDIYGVEYYHLCYLCENAERSACIYGGVTNHEGNHLEIPKKIVVKVSIDGIQSLSFDIETNKKMVTAQELDYKVRKYLTDNKQLYTNGPSKYETGYIKFIPKNKESFWFDFFPEPEFTQSKYLMIYKDNETLDSNTSQIEVYLTTK
B2: binds [2].

B3: staphylococcal enterotoxin A (SEA), wild type (ligand)
chain: SEKSEEINEKDLRKKSELQGTALGNLKQIYYYNEKAKTENKESHDQFLQHTILFKGFFTDHSWYNDLLVDFDSKDIVDKYKGKKVDLYGAYYGYQCAGGTPNKTACMYGGVTLHDNNRLTEEKKVPINLWLDGKQNTVPLETVKTNKKNVTVQELDLQARRYLQEKYNLYNSDVFDGKVQRGLIVFHTSTEPSVNYDLFGAQGQYSNTLLRIYRDNKTINSENMHIDIYLYTS
B3: binds [3].

B4: staphylococcal enterotoxin D (SED) (ligand)
chain: NENIDSVKEKELHKKSELSSTALNNMKHSYADKNPIIGENKSTGDQFLENTLLYKKFFTDLINFEDLLINFNSKEMAQHFKSKNVDVYPIRYSINCYGGEIDRTACTYGGVTPHEGNKLKERKKIPINLWINGVQKEVSLDKVQTDKKNVTVQELDAQARRYLQKDLKLYNNDTLGGKIQRGKIEFDSSDGSKVSYDLFDVKGDFPEKQLRIYSDNKTLSTEHLHIDIYLYEK
B4: binds [4].
